Experimental data taken from publication PMC7870876.

Target: Synaptophysin (rat (endogenous in rat brain synaptic vesicles)), P07825
Experiment: cross-linking; BS3 cross-linked synaptic vesicle proteins, gel electrophoresis, western blot with antibodies against Synaptobrevin-2 and Synaptophysin
Settings: remark: other sources report otherwise

stoichiometry N: 2
B1: Synaptophysin, P07825 1-307 (natural protein)
chain: MDVVNQLVAGGQFRVVKEPLGFVKVLQWVFAIFAFATCGSYTGELRLSVECANKTESALNIEVEFEYPFRLHQVYFDAPSCVKGGTTKIFLVGDYSSSAEFFVTVAVFAFLYSMGALATYIFLQNKYRENNKGPMMDFLATAVFAFMWLVSSSAWAKGLSDVKMATDPENIIKEMPMCRQTGNTCKELRDPVTSGLNTSVVFGFLNLVLWVGNLWFVFKETGWAAPFMRAPPGAPEKQPAPGDAYGDAGYGQGPGGYGPQDSYGPQGGYQPDYGQPASGGGGYGPQGDYGQQGYGQQGAPTSFSNQM
